Test results taken from the Immune Epitope Database (IEDB).

Tests used:
Test in all cases: IEDB peptide-MHC binding, purified MHC/competitive/radioactivity; filed as Kd, often an IC50 or EC50 that approximates it; ≥ and ≤ were set here for values at or beyond the usual limits of such assays
HLA-A*31:01 = molecular target: HLA-A*31:01
HLA-A*11:01 = molecular target: HLA-A*11:01
HLA-A*33:01 = molecular target: HLA-A*33:01
HLA-A*68:01 = molecular target: HLA-A*68:01
HLA-A*03:01 = molecular target: HLA-A*03:01
[1] = source organism: Vaccinia virus WR
[2] = source organism: Dengue virus 2 Jamaica/1409/1983
[3] = source organism: SARS coronavirus Tor2
[4] = source organism: Dengue virus 4 Philippines/H241/1956
[5] = source organism: Dengue virus 3 Martinique/1243/1999
[6] = source organism: Mammarenavirus brazilense
[7] = source organism: Lymphocytic choriomeningitis virus (strain Traub)

AALDGTFQRK
Kd (HLA-A*31:01; [1]): 4280 nM
Kd (HLA-A*11:01; [1]): 8.05 nM
Kd (HLA-A*33:01; [1]): ≥ 70 µM
Kd (HLA-A*68:01; [1]): 8290 nM
Kd (HLA-A*03:01; [1]): 49.4 nM

AIFTYTGGY
Kd (HLA-A*31:01; [1]): 7160 nM
Kd (HLA-A*11:01; [1]): 282 nM
Kd (HLA-A*33:01; [1]): ≥ 77.7 µM
Kd (HLA-A*68:01; [1]): 8380 nM
Kd (HLA-A*03:01; [1]): 287 nM

AISSRVDRY
Kd (HLA-A*31:01; [1]): 18700 nM
Kd (HLA-A*11:01; [1]): 164 nM
Kd (HLA-A*33:01; [1]): ≥ 77.7 µM
Kd (HLA-A*68:01; [1]): 4740 nM
Kd (HLA-A*03:01; [1]): 5010 nM

AMAFHLTTR
Kd (HLA-A*31:01; [2]): 1.57 nM
Kd (HLA-A*03:01; [2]): 56.3 nM

ATAHSELAK
Kd (HLA-A*31:01; [3]): 18500 nM
Kd (HLA-A*11:01; [3]): 5.33 nM
Kd (HLA-A*33:01; [3]): ≥ 77.7 µM
Kd (HLA-A*68:01; [3]): 19.2 nM
Kd (HLA-A*03:01; [3]): 11.6 nM

DLIAMENLK
Kd (HLA-A*31:01; [1]): 19500 nM
Kd (HLA-A*11:01; [1]): 1350 nM
Kd (HLA-A*33:01; [1]): 0.586 µM
Kd (HLA-A*68:01; [1]): 16.2 nM
Kd (HLA-A*03:01; [1]): ≥ 33500 nM

DLLNSMMNR
Kd (HLA-A*31:01; [1]): 42.3 nM
Kd (HLA-A*11:01; [1]): 14800 nM
Kd (HLA-A*33:01; [1]): 0.00404 µM
Kd (HLA-A*68:01; [1]): 35.9 nM
Kd (HLA-A*03:01; [1]): 2210 nM

DSMDVLAEKK
Kd (HLA-A*31:01; [1]): 1000 nM
Kd (HLA-A*11:01; [1]): 762 nM
Kd (HLA-A*33:01; [1]): 3.54 µM
Kd (HLA-A*68:01; [1]): 1.68 nM
Kd (HLA-A*03:01; [1]): 343 nM

EGVYRIMQR
Kd (HLA-A*68:01; [4]): 215 nM

ETAKVIKLVK
Kd (HLA-A*31:01; [1]): 9310 nM
Kd (HLA-A*11:01; [1]): 192 nM
Kd (HLA-A*33:01; [1]): ≥ 70 µM
Kd (HLA-A*68:01; [1]): 21.4 nM
Kd (HLA-A*03:01; [1]): 1610 nM

ETNMITLLVK
Kd (HLA-A*11:01; [4]): 1080 nM

FLIGANYLGK
Kd (HLA-A*31:01; [3]): 3720 nM
Kd (HLA-A*11:01; [3]): 543 nM
Kd (HLA-A*33:01; [3]): ≥ 34 µM
Kd (HLA-A*68:01; [3]): 51.3 nM
Kd (HLA-A*03:01; [3]): 213 nM

FLLFLEITY
Kd (HLA-A*31:01; [1]): 160 nM
Kd (HLA-A*11:01; [1]): 15900 nM
Kd (HLA-A*33:01; [1]): 7.17 µM
Kd (HLA-A*68:01; [1]): 1900 nM
Kd (HLA-A*03:01; [1]): 10500 nM

FMDEIDHESY
Kd (HLA-A*31:01; [1]): ≥ 22000 nM
Kd (HLA-A*11:01; [1]): ≥ 36400 nM
Kd (HLA-A*33:01; [1]): ≥ 43.7 µM
Kd (HLA-A*68:01; [1]): ≥ 59200 nM
Kd (HLA-A*03:01; [1]): 15800 nM

FTLNHVLALK
Kd (HLA-A*31:01; [1]): 135 nM
Kd (HLA-A*11:01; [1]): 7.96 nM
Kd (HLA-A*33:01; [1]): 1.71 µM
Kd (HLA-A*68:01; [1]): 4.61 nM
Kd (HLA-A*03:01; [1]): 10.6 nM

GALHLYFDK
Kd (HLA-A*31:01; [3]): 143 nM
Kd (HLA-A*11:01; [3]): 0.928 nM
Kd (HLA-A*33:01; [3]): 15.4 µM
Kd (HLA-A*68:01; [3]): 4970 nM
Kd (HLA-A*03:01; [3]): 486 nM

GLSLQDYCY
Kd (HLA-A*31:01; [1]): ≥ 37800 nM
Kd (HLA-A*11:01; [1]): 361 nM
Kd (HLA-A*33:01; [1]): 8.68 µM
Kd (HLA-A*68:01; [1]): ≥ 29500 nM
Kd (HLA-A*03:01; [1]): 3100 nM

GLTSRATWAK
Kd (HLA-A*03:01; [2]): 52.3 nM

GTDDEVIER
Kd (HLA-A*31:01; [1]): 2230 nM
Kd (HLA-A*11:01; [1]): 369 nM
Kd (HLA-A*33:01; [1]): 1.17 µM
Kd (HLA-A*68:01; [1]): 634 nM
Kd (HLA-A*03:01; [1]): ≥ 63500 nM

GTLGLECSPR
Kd (HLA-A*33:01; [5]): 0.0236 µM
Kd (HLA-A*68:01; [5]): 106 nM

GVRFFFYTSK
Kd (HLA-A*31:01; [3]): 488 nM
Kd (HLA-A*11:01; [3]): 44.6 nM
Kd (HLA-A*33:01; [3]): 11 µM
Kd (HLA-A*68:01; [3]): 121 nM
Kd (HLA-A*03:01; [3]): 88.9 nM

HIKVDHPDK
Kd (HLA-A*31:01; [1]): 158 nM
Kd (HLA-A*11:01; [1]): 5680 nM
Kd (HLA-A*33:01; [1]): 0.298 µM
Kd (HLA-A*68:01; [1]): 1960 nM
Kd (HLA-A*03:01; [1]): 5150 nM

IAQYKCVTIK
Kd (HLA-A*31:01; [1]): 5880 nM
Kd (HLA-A*11:01; [1]): 773 nM
Kd (HLA-A*33:01; [1]): ≥ 24.1 µM
Kd (HLA-A*68:01; [1]): 5860 nM
Kd (HLA-A*03:01; [1]): 29.1 nM

ILSDENYLLK
Kd (HLA-A*31:01; [1]): 17000 nM
Kd (HLA-A*11:01; [1]): 29 nM
Kd (HLA-A*33:01; [1]): 14.4 µM
Kd (HLA-A*68:01; [1]): 2530 nM
Kd (HLA-A*03:01; [1]): 57.5 nM

ISNITTATR
Kd (HLA-A*31:01; [4]): 72.7 nM

ISYCRAFIY
Kd (HLA-A*31:01; [1]): 232 nM
Kd (HLA-A*11:01; [1]): 0.358 nM
Kd (HLA-A*33:01; [1]): 3.57 µM
Kd (HLA-A*68:01; [1]): 1.35 nM
Kd (HLA-A*03:01; [1]): 1.44 nM

IVNEHDIKY
Kd (HLA-A*31:01; [1]): ≥ 39900 nM
Kd (HLA-A*11:01; [1]): 85.1 nM
Kd (HLA-A*33:01; [1]): ≥ 55.8 µM
Kd (HLA-A*68:01; [1]): 4460 nM
Kd (HLA-A*03:01; [1]): 1.13 nM

IVQLPKRGVR
Kd (HLA-A*31:01; [1]): 1230 nM
Kd (HLA-A*11:01; [1]): ≥ 25700 nM
Kd (HLA-A*33:01; [1]): 12.5 µM
Kd (HLA-A*68:01; [1]): 19000 nM
Kd (HLA-A*03:01; [1]): 15800 nM

IVSSVNMISR
Kd (HLA-A*33:01; [2]): 0.0885 µM
Kd (HLA-A*68:01; [2]): 16.2 nM

KAKWLTPFEK
Kd (HLA-A*31:01; [1]): 115 nM
Kd (HLA-A*11:01; [1]): 249 nM
Kd (HLA-A*33:01; [1]): ≥ 70 µM
Kd (HLA-A*68:01; [1]): 11800 nM
Kd (HLA-A*03:01; [1]): 212 nM

KASTISWMMK
Kd (HLA-A*31:01; [1]): 88 nM
Kd (HLA-A*11:01; [1]): 5.49 nM
Kd (HLA-A*33:01; [1]): ≥ 50.4 µM
Kd (HLA-A*68:01; [1]): 134 nM
Kd (HLA-A*03:01; [1]): 45 nM

KCFEKFLEPK
Kd (HLA-A*31:01; [6]): 1030 nM
Kd (HLA-A*11:01; [6]): 16900 nM
Kd (HLA-A*33:01; [6]): ≥ 23.1 µM
Kd (HLA-A*68:01; [6]): 3470 nM
Kd (HLA-A*03:01; [6]): 1270 nM

KCHDHYLCRH
Kd (HLA-A*31:01; [7]): 9650 nM
Kd (HLA-A*11:01; [7]): ≥ 69700 nM
Kd (HLA-A*33:01; [7]): ≥ 70 µM
Kd (HLA-A*68:01; [7]): ≥ 70100 nM
Kd (HLA-A*03:01; [7]): ≥ 24800 nM

KIIHEWCCR
Kd (HLA-A*31:01; source organism: Dengue virus 1 Brazil/97-11/1997): ≥ 59300 nM

KSGGLSSGFY
Kd (HLA-A*31:01; [1]): ≥ 70000 nM
Kd (HLA-A*11:01; [1]): 5210 nM
Kd (HLA-A*33:01; [1]): ≥ 70 µM
Kd (HLA-A*68:01; [1]): ≥ 70200 nM
Kd (HLA-A*03:01; [1]): 2570 nM

KSLVSAGSGK
Kd (HLA-A*03:01; [5]): 3.41 nM

KSTELIRRVR
Kd (HLA-A*31:01; [1]): 15 nM
Kd (HLA-A*11:01; [1]): ≥ 20200 nM
Kd (HLA-A*33:01; [1]): 1.93 µM
Kd (HLA-A*68:01; [1]): 901 nM
Kd (HLA-A*03:01; [1]): ≥ 70100 nM

LIVSLCPTK
Kd (HLA-A*31:01; [1]): 14200 nM
Kd (HLA-A*11:01; [1]): 107 nM
Kd (HLA-A*33:01; [1]): 1.44 µM
Kd (HLA-A*68:01; [1]): 75.4 nM
Kd (HLA-A*03:01; [1]): 8400 nM

LLLFADINGK
Kd (HLA-A*31:01; [3]): ≥ 24100 nM
Kd (HLA-A*11:01; [3]): 508 nM
Kd (HLA-A*33:01; [3]): 17.2 µM
Kd (HLA-A*68:01; [3]): 9200 nM
Kd (HLA-A*03:01; [3]): 136 nM
